As a reminder, the stoichiometry N is the number of molecules, sites or subunits per partner or assembly. Usually Kd stands for the concentration at which binding is half-saturated. High values mean lower affinity, low ones higher affinity.

One substance from doi:10.1101/757856 can be followed below.

Test [1] concerns the target full-length human Neurofibromin (His6-tagged, purified) (human) (UniProt P21359). The experiment in a line: negative stain electron microscopy.
Test [2] shares this target. Nature of the test: AUC.
Test [3] shares this target. The experiment in a line: SEC.
The target is the same in test [4]. Nature of the test: SAXS and SANS.
Test [5] has the same target. The experiment in a line: SEC-MALS.

A value given as a limit tells only on which side of the number the result lay.

Consider “full-length human Neurofibromin (His6-tagged, purified), P21359-2 1-2818”, for which the stoichiometry N in test [1], in test [2], in test [3], in test [4] and in test [5] was 2 throughout. This substance showed a Kd in test [2] of less than 5 nM.
